This is an account of results in patent US20190314531A1.

Broadly, the IC50 is the point on the concentration scale where inhibition reaches its midpoint. For orientation: Ki means a measure of affinity in units of concentration, obtained from inhibition or displacement.

In experiment [1] the target is human PD-L1 on cells (CHO cells stably expressing human PD-L1; MDAMB231, HCC827, H226, doxycycline-treated A549-iPDL1 cells and their tumors) (human) (UniProt Q9NZQ7). Description: cell-based or functional assay.
Sequence of human PD-L1 on cells (CHO cells stably expressing human PD-L1; MDAMB231, HCC827, H226, doxycycline-treated A549-iPDL1 cells and their tumors) (human) (Q9NZQ7 19-290): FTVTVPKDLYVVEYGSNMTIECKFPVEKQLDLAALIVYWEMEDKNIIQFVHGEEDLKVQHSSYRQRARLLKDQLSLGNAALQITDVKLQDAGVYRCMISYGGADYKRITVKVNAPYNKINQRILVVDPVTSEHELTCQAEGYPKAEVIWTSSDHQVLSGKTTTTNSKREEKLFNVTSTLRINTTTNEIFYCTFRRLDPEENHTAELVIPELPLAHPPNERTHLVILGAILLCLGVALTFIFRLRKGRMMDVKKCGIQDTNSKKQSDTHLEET
Experiment [2] has the same target. Description: radiotracer on hPD-L1 cells, 1 h, gamma counting.
Experiment [3] addresses recombinant human PD-L1(B7-H1)-His-tag protein (catalog #9049-B7, R&D systems) (human) (UniProt Q9NZQ7). Description: FRET competitive inhibition of PD-L1 binding to PD-1.
The target is the same in experiment [4]. Description: FRET competitive inhibition of PD-L1-His-tag binding to PD-1-Ig, Cheng-Prusoff.
For experiment [5] the target is unchanged. Description: FRET competitive inhibition of PD-L1-His-tag (80 nM) binding to PD-1-Ig (20 nM).
Experiment [6] deals with human PD-L1 on cells (CHO cells stably expressing human PD-L1; MDAMB231, HCC827, H226, doxycycline-treated A549-iPDL1 cells and their tumors) (human) (UniProt Q9NZQ7). Description: hPD-L1 cells, 1 uM blocking dose of WL12; competitor [^64Cu]WL12.
Experiment [7] shares this target. Description: flow cytometry, in vitro binding; competitor Cy5-conjugated AtzMab. (In general: In flow cytometry, cells or beads pass a laser one at a time.)
Experiment [8] shares this target. Description: flow cytometry on hPD-L1 cells, serial dilutions of WL12; competitor BD-MIH1-PE.
Experiment [9] shares this target. Description: flow cytometry on hPD-L1 cells, serial dilutions of WL12; competitor Cy5-AtzMab.
The target is the same in experiment [10]. Description: flow cytometry on Cho-hPD-L1 and MDAMB231 cells; competitors Cy5-AtzMab, Cy5-AveMab, Cy5-DurMab (ends not tied to one mAb).

Sequence of recombinant human PD-L1(B7-H1)-His-tag protein (catalog #9049-B7, R&D systems) (human) (Q9NZQ7 19-239 limits assumed): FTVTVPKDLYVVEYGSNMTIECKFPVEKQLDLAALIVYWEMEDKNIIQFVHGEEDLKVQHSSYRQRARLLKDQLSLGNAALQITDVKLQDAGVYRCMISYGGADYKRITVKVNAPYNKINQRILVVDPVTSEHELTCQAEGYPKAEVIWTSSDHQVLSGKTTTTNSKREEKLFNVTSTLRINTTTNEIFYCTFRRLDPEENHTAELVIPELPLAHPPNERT

Take [^64Cu]WL12 (peptide): in [1], the accumulation of [^64Cu]WL12 in A549-iPDL1 tumors after 72 h doxycycline against A549 control tumors was 65% and the radioactivity uptake in hPD-L1 tumors at 1 h, percentage of injected dose/g worked out at 14.9 % ID/g. The substance also displayed an uptake of the incubated dose in experiment [2] of over 50%.
Turning to “WL12-Cu^2+ complex (copper complex of WL12D) (peptide)”, the IC50 in [3] was 2.9 nM; in experiment [5] it was 2.97 nM. The Ki in experiment [4] is 1.38 nM.
WL12 (unmodified PD-L1 binding peptide) registered a reduction in % ID/g of [^64Cu]WL12 in hPD-L1 tumors on co-injection of excess WL12 (50 ug, 2 mg/kg), 2 h in experiment [1] of over 75%. Also, the IC50 turned out to be 22 nM in [3]; 37.8 nM in experiment [7]; 20.3 nM in experiment [5]; 37.8 nM in experiment [8]; 2.5 nM in experiment [9]. Besides, the reduction in bound [^64Cu]WL12 in [6] is over 95%. Further, in experiment [4], the Ki was found to be 1.1 nM. The inhibitory concentrations in [10] was found to be 5 nM.
Take WL12-DOTAGA (WL12D) (peptide): the values for the half-inhibitory concentration (IC50) in experiment [3] and in experiment [5] were 23 nM and 22.2 nM, respectively. The Ki in [4] is 10.4 nM.
